Reference: patent US7588931B2, “High arachidonic acid producing strains of Yarrowia lipolytica” (E. I. du Pont de Nemours and Company, priority 2004, dated 2009)

Assays:
Type in all cases: cell-based, Yarrowia lipolytica
GUS mRNA = assay: Comparative analysis of promoters by quantitative (Real Time) PCR of GUS mRNA; conditions: for transcription activity relative to the TEF promoter: after 24 hrs in HGM, ATCC #76982 strains
Protocol: The transcriptional activities of the TEF, GPD, GPDIN, FBA and FBAIN promoters were determined in Y. lipolytica containing the pY5-30, PYZGDG, pDMW222, pDMW212 and pDMW214 constructs by quantitative PCR analyses. This required isolation of RNA and real time RT-PCR.
More specifically, Y. lipolytica ATCC #76982 strains containing pY5-30, PYZGDG, pDMW222, pDMW212 and pDMW214 were grown from single colonies in 6 mL of MM in 25 mL Erlenmeyer flasks for 16 hrs at 30° C. Each of the 6 mL starter cultures was then added to individual 500 mL flasks containing 140 mL HGM and incubated at 30° C. for 4 days. In each interval of 24 hrs, 1 mL of each culture was removed from each flask to measure the optical density, 27 mL was removed and used for a fluorometric GUS assay (as described above), and two aliquots of 1.5 mL were removed for RNA isolation. The culture for RNA isolation was centrifuged to produce a cell pellet.
The RNA was isolated from Yarrowia strains according to the modified Qiagen RNeasy mini protocol (Qiagen, San Diego, Calif.). Briefly, at each time point for each sample, 340 μL of Qiagen's buffer RLT was used to resuspend each of the two cell pellets. The buffer RLT/cell suspension mixture from each of the two tubes was combined in a bead beating tube (Bio101, San Diego, Calif.). About 500 μL of […] glass beads was added to the tube and the cells were disrupted by bead beating 2 min at setting 5 (BioPulverizer, Bio101 Company, San Diego, Calif.). The disrupted cells were then pelleted by centrifugation at 14,000 rpm for 1 min and 350 μl of the supernatent was transferred to a new microcentrifuge tube. Ethanol (350 μL of 70%) was added to each homogenized lysate. After gentle mixing, the entire sample was added to a RNeasy mini column in a 2 mL collection tube. The sample was centrifuged for 15 sec at 10,000 rpm. Buffer RW1 (350 μL) was added to the RNeasy mini column and the column was centrifuged for 15 sec at 10,000 rpm to wash the cells. The eluate was discarded. Qiagen's DNasel stock solution (10 μL) was added to 70 μl of Buffer RDD and gently mixed. This entire DNase solution was added to the RNeasy mini column and incubated at room temperature for 15 min. After the incubation step, 350 μL of Buffer RW1 was added to the mini column and the column was centrifuged for 15 sec at 10,000 rpm. The column was washed twice with 700 μL […]. RNase-free water (50 μL) was added to the column. The column was centrifuged for 1 min at 10,000 rpm to elute the RNA.
A two-step RT-PCR protocol was used, wherein total Yarrowia RNA was first converted to cDNA and then cDNA was analyzed using Real Time PCR. The conversion to cDNA was performed using Applied Biosystems' High Capacity cDNA Archive Kit (PN#4322171; Foster City, Calif.) and Molecular Biology Grade water from MediaTech, Inc. (PN# 46-000-Con; Holly Hill, Fla.). Total RNA from Yarrowia (100 ng) was converted to cDNA by combining it with 10 μl of RT buffer, 4 μl of 25×dNTPs, 10 μl 10× Random Hexamer primers, 5 μl Multiscribe Reverse Transcriptase and 0.005 μl RNase Inhibitor, and brought to a total reaction volume of 100 μl with water. The reactions were incubated in a thermocycler for 10 min at 25° C. followed by 2 hrs at 37° C. The cDNA was stored at −20° C. prior to Real Time analysis.
Real Time analysis was performed using the SYBR Green PCR Master Mix from Applied Biosystems (PN# 4309155). The Reverse Transcription reaction (2 μl) was added to 10 μl of 2×SYBR PCR Mix, 0.2 μl of 100 μM Forward and Reverse primers for either URA (i.e., primers YL-URA-16F and YL-URA-78R [SEQ ID NOs:183 and 184]) or GUS (i.e., primers GUS-767F and GUS-891R [SEQ ID NO:185 and 186]) and 7.2 μl water. The reactions were thermocycled for 10 min at 95° C. followed by 40 cycles of 95° C. for 5 sec and 60° C. for 1 min in an ABI 7900 Sequence Detection System instrument. Real time fluorescence data was collected during the 60° C. extension during each cycle. […]

[1] = system: β-glucuronidase (GUS) reporter; assay: Relative promoter activity rank from comparative GUS reporter studies (histochemical, fluorometric and/or Real Time PCR); conditions: relative to other promoters
Protocol: The activity of GPM is about the same as TEF, while the activity of GPD, FBA, FBAIN, FBAINm, GPDIN, GPAT, YAT1 and EXP1 are all greater than TEF (activity is quantified in a relative manner in the column titled “Activity Rank”, wherein a ‘1’ corresponds to the promoter with lowest activity, while a ‘7’ corresponds to the promoter with highest activity). […] GUS activity in each expressed construct was measured by histochemical and/or fluorometric assays (Jefferson, R. A. Plant Mol. Biol. Reporter 5:387-405 (1987)) and/or by use of Real Time PCR.

[2] = system: β-glucuronidase (GUS) reporter; assay: Comparative analysis of promoters by histochemical analysis of GUS expression; conditions: ATCC #76982 strains, MM, FIG. 5B
Protocol: Comparative studies investigating the promoter activities of the TEF, GPD, GPDIN, GPM, GPAT, FBA, FBAIN and YAT1 promoters were performed, by synthesizing constructs comprising each promoter and the E. coli gene encoding β-glucuronidase (GUS) as a reporter gene (Jefferson, R. A. Nature. 14(342):837-838 (1989)). Then, GUS activity was measured by histochemical and fluorometric assays (Jefferson, R. A. Plant Mol. Biol. Reporter 5:387-405 (1987)) and/or by using Real Time PCR for mRNA quantitation.
Yarrowia lipolytica ATCC #76982 strains containing plasmids pY5-30, pYZGDG, pYZGMG, pDMW212 and pDMW214 were grown from single colonies in 3 mL MM at 30° C. to an OD600˜1.0. Then, 100 μl of cells were collected by centrifugation, resuspended in 100 μl of histochemical staining buffer, and incubated at 30° C. Staining buffer was prepared by dissolving 5 mg of 5-bromo-4-chloro-3-indolyl glucuronide (X-Gluc) in 50 μl dimethyl formamide, followed by the addition of 5 mL 50 mM NaPO4, pH 7.0.
In a separate experiment, Y. lipolytica Y2034 strains containing plasmids pY5-30, pYGPAT-GUS, pYAT-GUS and pDMW214 were grown from single colonies in 5 mL SD media at 30° C. for 24 hrs to an OD600˜8.0. Then, 1 mL of cells were collected by centrifugation. The remaining cultures were centrifuged and washed 2× with HGM, resuspended in 5 mL each of HGM and allowed to grow at 30° C. further. After 24 and 120 hrs, ˜0.25 mL of each culture were centrifuged to collect the cells. Cell samples were resuspended individually in 100 μl of histochemical staining buffer (supra). Zymolase 20T (5 μl of 1 mg/mL; ICN Biomedicals, Costa Mesa, Calif.) was added to each, and the mixture incubated at 30° C. […]

Row | Molecule | transcription activity relative to the TEF promoter (GUS mRNA) | transcriptional activity relative to the TEF promoter (GUS mRNA; final day of the 4 day experiment in HGM) | Activity “Rank” [1] | promoter activity by histochemical staining [2]
1 | GPDIN: glyceraldehyde-3-phosphate dehydrogenase + intron promoter, SEQ ID NO:159 (nucleic acid, listed as Yarrowia lipolytica, misc_feature: Promoter GPDIN) DNA: AAACACGCAGTAGGATGTCCTGCACGGGTCTTTTTGTGGGGTGTGGAGAAAGGGGTGCTTGGAGATGGAAGCCGGTAGAACCGGGCTGCTTGTGCTTGGAGATGGAAGCCGGTAGAACCGGGCTGCTTGGGGGGATTTGGGGCCGCTGGGCTCCAAAGAGGGGTAGGCATTTCGTTGGGGTTACGTAATTGCGGCATTTGGGTCCTGCGCGCATGTCCCATTGGTCAGAATTAGTCCGGATAGGAGACTTATCAGCCAATCACAGCGCCGGATCCACCTGTAGGTTGGGTTGGGTGGGAGCACCCCTCCACAGAGTAGAGTCAAACAGCAGCAGCAACATGATAGTTGGGGGTGTGCGTGTTAAAGGAAAAAAAAGAAGCTTGGGTTATATTCCCGCTCTATTTAGAGGTTGCGGGATAGACGCCGACGGAGGGCAATGGCGCTATGGAACCTTGCGGATATCCATACGCCGCGGCGGACTGCGTCCGAACCAGCTCCAGCAGCGTTTTTTCCGGGCCATTGAGCCGACTGCGACCCCGCCAACGTGTCTTGGCCCACGCACTCATGTCATGTTGGTGTTGGGAGGCCACTTTTTAAGTAGCACAAGGCACCTAGCTCGCAGCAAGGTGTCCGAACCAAAGAAGCGGCTGCAGTGGTGCAAACGGGGCGGAAACGGCGGGAAAAAGCCACGGGGGCACGAATTGAGGCACGCCCTCGAATTTGAGACGAGTCACGGCCCCATTCGCCCGCGCAATGGCTCGCCAACGCCCGGTCTTTTGCACCACATCAGGTTACCCCAAGCCAAACCTTTGTGTTAAAAAGCTTAACATATTATACCGAACGTAGGTTTGGGCGGGCTTGCTCCGTCTGTCCAAGGCAACATTTATATAAGGGTCTGCATCGCCGGCTCAATTGAATCTTTTTTCTTCTTCTCTTCTCTATATTCATTCTTGAATTAAACACACATCAACATGGCCATCAAAGTCGGTATTAACGGATTCGGGCGAATCGGACGAATTGTGAGTACCATAGAAGGTGATGGAAACATGACCCAACAGAAACAGATGACAAGTGTCATCGACCCACCAGAGCCCAATTGAGCTCATACTAACAGTCGACAACCTGTCGAACCAATTGATGACTCCCCGACAATGTACTAACACAGGTCCTGCCC | ~4.4 times | ~2.6 times | 3 | –
2 | GPD: Y. lipolytica glyceraldehyde-3-phosphate dehydrogenase promoter, SEQ ID NO:158 (nucleic acid, listed as Yarrowia lipolytica, misc_feature: Promoter GPD) DNA: GACGCAGTAGGATGTCCTGCACGGGTCTTTTTGTGGGGTGTGGAGAAAGGGGTGCTTGGAGATGGAAGCCGGTAGAACCGGGCTGCTTGTGCTTGGAGATGGAAGCCGGTAGAACCGGGCTGCTTGGGGGGATTTGGGGCCGCTGGGCTCCAAAGAGGGGTAGGCATTTCGTTGGGGTTACGTAATTGCGGCATTTGGGTCCTGCGCGCATGTCCCATTGGTCAGAATTAGTCCGGATAGGAGACTTATCAGCCAATCACAGCGCCGGATCCACCTGTAGGTTGGGTTGGGTGGGAGCACCCCTCCACAGAGTAGAGTCAAACAGCAGCAGCAACATGATAGTTGGGGGTGTGCGTGTTAAAGGAAAAAAAAGAAGCTTGGGTTATATTCCCGCTCTATTTAGAGGTTGCGGGATAGACGCCGACGGAGGGCAATGGCGCCATGGAACCTTGCGGATATCGATACGCCGCGGCGGACTGCGTCCGAACCAGCTCCAGCAGCGTTTTTTCCGGGCCATTGAGCCGACTGCGACCCCGCCAACGTGTCTTGGCCCACGCACTCATGTCATGTTGGTGTTGGGAGGCCACTTTTTAAGTAGCACAAGGCACCTAGCTCGCAGCAAGGTGTCCGAACCAAAGAAGCGGCTGCAGTGGTGCAAACGGGGCGGAAACGGCGGGAAAAAGCCACGGGGGCACGAATTGAGGCACGCCCTCGAATTTGAGACGAGTCACGGCCCCATTCGCCCGCGCAATGGCTCGCCAACGCCCGGTCTTTTGCACCACATCAGGTTACCCCAAGCCAAACCTTTGTGTTAAAAAGCTTAACATATTATACCGAACGTAGGTTTGGGCGGGCTTGCTCCGTCTGTCCAAGGCAACATTTATATAAGGGTCTGCATCGCCGGCTCAATTGAATCTTTTTTCTTCTTCTCTTCTCTATATTCATTCTTGAATTAAACACACATCAACATG | about 2 times | – | 2 | active
